Laboratory results as given in patent publication US20260256936A1, “BIOACTIVE CONJUGATES, PREPARATION METHOD AND USE THEREOF” (priority 2023, published 2026).
Like-named read-outs stand apart in the source and are kept apart here.

Columns and labels:
Assay in all cases: cell-based or functional assay
[1] = target: T1, CLL1 on CLL1-expressing cells (U937, HL60) (human, UniProt Q5QGZ9 1-265)
T1 sequence (looked up): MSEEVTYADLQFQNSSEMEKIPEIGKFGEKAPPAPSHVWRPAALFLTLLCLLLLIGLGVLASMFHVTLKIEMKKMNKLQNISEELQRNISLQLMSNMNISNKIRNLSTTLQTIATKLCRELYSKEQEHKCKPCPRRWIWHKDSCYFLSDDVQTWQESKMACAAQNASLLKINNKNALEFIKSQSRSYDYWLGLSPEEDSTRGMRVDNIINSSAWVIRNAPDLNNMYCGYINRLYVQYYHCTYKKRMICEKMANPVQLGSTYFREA

[2] = target: T1, CLL1 on CLL1-expressing cells (U937, …); remark: listed apart in the source
[3] = target: T1, CLL1 on CLL1-expressing cells (U937, …); remark: listed apart in the source
[4] = target: T1, CLL1 on CLL1-expressing cells (U937, …); remark: listed apart in the source

B1: ADC3-5 (antibody, human IgG1, kappa, V domains shown)
VH: EVQLVQSGAEVKKPGASVKVSCKASGYSFTDYYMHWVRQAPGQGLEWIGRINPYAGAAFYSQNFKDRVTLTVDTSTSTAYLELSSLRSEDTAVYYCAIERGADLEGYAMDYWGQGTLVTVSS
VL: DIQMTQSPSSLSASVGDRVTITCRASQSVSTSSYNYMHWYQQKPGKPPKLLIKYASNLESGVPSRFSGSGSGTDFTLTISSLQPEDFATYYCQHSWEIPLTFGQGTKVEIKR
modifications: conjugator-linker-payload on cysteine thiols after TCEP reduction; positions not given
[1]
  EC50 (nM) direct cellular killing, U937: 1 nM
  Emax (%) direct cellular killing, HL60: 79.8%

B2: ADC3-4 (antibody, human IgG1, kappa, V domains shown)
VH: EVQLVQSGAEVKKPGASVKVSCKASGYSFTDYYMHWVRQAPGQGLEWIGRINPYAGAAFYSQNFKDRVTLTVDTSTSTAYLELSSLRSEDTAVYYCAIERGADLEGYAMDYWGQGTLVTVSS
VL: DIQMTQSPSSLSASVGDRVTITCRASQSVSTSSYNYMHWYQQKPGKPPKLLIKYASNLESGVPSRFSGSGSGTDFTLTISSLQPEDFATYYCQHSWEIPLTFGQGTKVEIKR
modifications: conjugator-linker-payload on cysteine thiols after TCEP reduction; positions not given
[2]
  EC50 (nM) direct cellular killing, HL60: 1.1 nM
  EC50 (nM) direct cellular killing, U937: 0.2 nM
  Emax (%) direct cellular killing, HL60: 98%

B3: ADC3-11 (antibody, human IgG1, kappa, V domains shown)
VH: EVQLVQSGAEVKKPGASVKVSCKASGYSFTDYYMHWVRQAPGQGLEWIGRINPYAGAAFYSQNFKDRVTLTVDTSTSTAYLELSSLRSEDTAVYYCAIERGADLEGYAMDYWGQGTLVTVSS
VL: DIQMTQSPSSLSASVGDRVTITCRASQSVSTSSYNYMHWYQQKPGKPPKLLIKYASNLESGVPSRFSGSGSGTDFTLTISSLQPEDFATYYCQHSWEIPLTFGQGTKVEIKR
modifications: conjugator-linker-payload on cysteine thiols after TCEP reduction; positions not given
[3]
  EC50 (nM) direct cellular killing, HL60: 4.6 nM
  EC50 (nM) direct cellular killing, U937: 12.8 nM
  Emax (%) direct cellular killing, HL60: 43.9%
  Emax (%) direct cellular killing, U937: 78.7%

B4: ADC3-3 (antibody, human IgG1, kappa, V domains shown)
VH: EVQLVQSGAEVKKPGASVKVSCKASGYSFTDYYMHWVRQAPGQGLEWIGRINPYAGAAFYSQNFKDRVTLTVDTSTSTAYLELSSLRSEDTAVYYCAIERGADLEGYAMDYWGQGTLVTVSS
VL: DIQMTQSPSSLSASVGDRVTITCRASQSVSTSSYNYMHWYQQKPGKPPKLLIKYASNLESGVPSRFSGSGSGTDFTLTISSLQPEDFATYYCQHSWEIPLTFGQGTKVEIKR
modifications: conjugator-linker-payload on cysteine thiols after TCEP reduction; positions not given
[2]
  EC50 (nM) direct cellular killing, HL60: 1.6 nM
  EC50 (nM) direct cellular killing, U937: 0.2 nM

B5: ADC3-7 (antibody, human IgG1, kappa, V domains shown)
VH: EVQLVQSGAEVKKPGASVKVSCKASGYSFTDYYMHWVRQAPGQGLEWIGRINPYAGAAFYSQNFKDRVTLTVDTSTSTAYLELSSLRSEDTAVYYCAIERGADLEGYAMDYWGQGTLVTVSS
VL: DIQMTQSPSSLSASVGDRVTITCRASQSVSTSSYNYMHWYQQKPGKPPKLLIKYASNLESGVPSRFSGSGSGTDFTLTISSLQPEDFATYYCQHSWEIPLTFGQGTKVEIKR
modifications: conjugator-linker-payload on cysteine thiols after TCEP reduction; positions not given
[4]
  EC50 (nM) direct cellular killing, HL60: 0.4 nM
  EC50 (nM) direct cellular killing, U937: 0.3 nM

B6: ADC3-12 (antibody, human IgG1, kappa, V domains shown)
VH: EVQLVQSGAEVKKPGASVKVSCKASGYSFTDYYMHWVRQAPGQGLEWIGRINPYAGAAFYSQNFKDRVTLTVDTSTSTAYLELSSLRSEDTAVYYCAIERGADLEGYAMDYWGQGTLVTVSS
VL: DIQMTQSPSSLSASVGDRVTITCRASQSVSTSSYNYMHWYQQKPGKPPKLLIKYASNLESGVPSRFSGSGSGTDFTLTISSLQPEDFATYYCQHSWEIPLTFGQGTKVEIKR
modifications: conjugator-linker-payload on cysteine thiols after TCEP reduction; positions not given
[3]
  EC50 (nM) direct cellular killing, HL60: 8 nM
  EC50 (nM) direct cellular killing, U937: 0.7 nM
  Emax (%) direct cellular killing, HL60: 81%

B7: ADC3-1 (antibody, human IgG1, kappa, V domains shown)
VH: EVQLVQSGAEVKKPGASVKVSCKASGYSFTDYYMHWVRQAPGQGLEWIGRINPYAGAAFYSQNFKDRVTLTVDTSTSTAYLELSSLRSEDTAVYYCAIERGADLEGYAMDYWGQGTLVTVSS
VL: DIQMTQSPSSLSASVGDRVTITCRASQSVSTSSYNYMHWYQQKPGKPPKLLIKYASNLESGVPSRFSGSGSGTDFTLTISSLQPEDFATYYCQHSWEIPLTFGQGTKVEIKR
modifications: conjugator-linker-payload on cysteine thiols after TCEP reduction; positions not given
[2]
  EC50 (nM) direct cellular killing, HL60: 5.7 nM
  EC50 (nM) direct cellular killing, U937: 0.5 nM

B8: ADC3-8 (antibody, human IgG1, kappa, V domains shown)
VH: EVQLVQSGAEVKKPGASVKVSCKASGYSFTDYYMHWVRQAPGQGLEWIGRINPYAGAAFYSQNFKDRVTLTVDTSTSTAYLELSSLRSEDTAVYYCAIERGADLEGYAMDYWGQGTLVTVSS
VL: DIQMTQSPSSLSASVGDRVTITCRASQSVSTSSYNYMHWYQQKPGKPPKLLIKYASNLESGVPSRFSGSGSGTDFTLTISSLQPEDFATYYCQHSWEIPLTFGQGTKVEIKR
modifications: conjugator-linker-payload on cysteine thiols after TCEP reduction; positions not given
[4]
  EC50 (nM) direct cellular killing, HL60: 0.1 nM
  EC50 (nM) direct cellular killing, U937: 0.2 nM
